Literature values as cited in paper PMC3159772.

Tests used:
NTS1 (Homo sapiens) = NTS1 (Homo sapiens) (UniProt P30989)
NTS2 (Homo sapiens) = NTS2 (Homo sapiens) (UniProt O95665)
Chain of UniProt O95665 (O95665 whole entry): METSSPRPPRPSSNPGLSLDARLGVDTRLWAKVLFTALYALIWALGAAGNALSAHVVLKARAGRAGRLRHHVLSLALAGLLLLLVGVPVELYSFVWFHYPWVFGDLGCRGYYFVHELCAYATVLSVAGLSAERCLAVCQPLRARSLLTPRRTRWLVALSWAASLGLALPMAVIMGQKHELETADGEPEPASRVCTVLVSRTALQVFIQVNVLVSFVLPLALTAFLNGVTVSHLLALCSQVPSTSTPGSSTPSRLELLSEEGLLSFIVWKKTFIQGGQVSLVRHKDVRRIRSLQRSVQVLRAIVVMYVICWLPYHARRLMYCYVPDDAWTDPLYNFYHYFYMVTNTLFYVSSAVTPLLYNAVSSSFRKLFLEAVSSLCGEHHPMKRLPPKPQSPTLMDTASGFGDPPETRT

Chain of UniProt P30989 (P30989 whole entry): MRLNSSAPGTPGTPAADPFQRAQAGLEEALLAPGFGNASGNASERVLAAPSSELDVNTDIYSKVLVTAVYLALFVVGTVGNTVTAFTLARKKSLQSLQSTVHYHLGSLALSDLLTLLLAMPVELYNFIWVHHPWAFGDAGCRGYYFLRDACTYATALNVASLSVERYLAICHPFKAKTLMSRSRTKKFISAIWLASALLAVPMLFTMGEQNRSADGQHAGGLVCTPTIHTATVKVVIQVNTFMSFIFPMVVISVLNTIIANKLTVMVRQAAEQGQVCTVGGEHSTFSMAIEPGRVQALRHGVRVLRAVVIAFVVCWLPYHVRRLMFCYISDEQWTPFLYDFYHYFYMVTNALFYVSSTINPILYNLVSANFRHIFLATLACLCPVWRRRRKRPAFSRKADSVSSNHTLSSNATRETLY

- Kd (NTS1 (Homo sapiens)): 3.1 nM
- Kd (NTS2 (Homo sapiens)): 2.1 nM
Substance: NT69L (from UniProt P30990)
